Assay results reported in US7226992B1, “Mutant Bcl-2 proteins and uses thereof” (Abbott Laboratories, priority 2000, dated 2007).
Residues, ends and D or L forms follow the SMILES beside them. Primed or numbered codes have the meaning given here. No end group written: not given here. *: point of attachment. 5FAM = O=C1OC2(c3ccc(O)cc3Oc3cc(O)ccc32)c2ccc(C(=O)*)cc21; FITC′ = fluorescein isothiocyanate

Tests used:
Bcl-2/iso1 [1] = target: T1, Bcl-2/iso1 (Homo sapiens, UniProt P10415, DEL35-91/INS34DVEENRTEAPEGTESE/R110G/T96A); test: Fluorescence polarization titration of fluoresceinated probe peptides with Bcl-2/iso1; type: binding
T1 construct: His tag (pET28b, thrombin-cleavable) (N, cleaved yes); made in house; host or cells: E. coli BL21(DE3)
T1 sequence (P10415 with tags, fused parts or gaps with the stated changes): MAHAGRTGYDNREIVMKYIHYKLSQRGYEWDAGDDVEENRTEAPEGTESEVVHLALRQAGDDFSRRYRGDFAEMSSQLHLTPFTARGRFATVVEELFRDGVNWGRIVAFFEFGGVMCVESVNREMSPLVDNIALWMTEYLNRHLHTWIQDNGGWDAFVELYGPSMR
Experimental: (3) (FITC)-AAQRYGRELRRMSDEFVR(SEQ ID NO:19). The dissociation constants of these fluoresceinated peptides from Bcl-2/iso1 are ˜20 nM, ˜50 nM, and ˜100 nM, respectively.
All titrations were automated by means of an Abbott clinical diagnostics instrument (IMx, FPIA mode) modified with a special protocol for performing titrations. A complete two-fold dilution series, comprised of twenty separate 2 mL samples, was obtained by delivering appropriate individual aliquots to the first seven tubes, aliquots from an intermediate diluted stock for the next seven, and one more intermediate dilution for the final six. […] The concentrations of the DMSO stock solutions of the peptide were 1–4 mM as determined by Trp absorbance (O.D. 280 nm), Tyr absorbance (O.D. 293), or amino acid analysis. […] Twenty 1.8 uL samples were prepared without fluoresceinatedpeptide and read as blanks. To each tube, 0.2 uL of a Bcl-2, fluoresceinatedpeptide mixture was added; the tubes were incubated for 5 min at 35° C., and then read for total intensity and polarization. […]
Steady state polarization data can be analyzed to extract the fractions of bound and free fluorescent ligand owing to the linear additivity of their anisotropy values, weighted by their respective fractional intensities (Lakowicz, JR. Principles of Fluorescence Spectroscopy. New York, N.Y.: Plenum Press (1983)). […]

Bcl-2/iso1 [2] = target: T1, Bcl-2/iso1; test: Competitive fluorescence polarization assay, peptide binding to Bcl-2/iso1
Experimental: A competitive fluorescence polarization assay was used to measure the affinity of various peptides for Bcl-2/iso1 (see Table 2) or Bcl-2/iso2 (see Table 3). Competitive assays were performed using one of the following three fluorescein-labeled peptides as a probe:
All titrations were automated by means of an Abbott clinical diagnostics instrument (IMx, FPIA mode) modified with a special protocol for performing titrations. A complete two-fold dilution series, comprised of twenty separate 2 mL samples, was obtained by delivering appropriate individual aliquots to the first seven tubes, aliquots from an intermediate diluted stock for the next seven, and one more intermediate dilution for the final six. […] The final DMSO concentration for all samples never exceeded 1%. Twenty 1.8 uL samples were prepared without fluoresceinatedpeptide and read as blanks. To each tube, 0.2 uL of a Bcl-2, fluoresceinatedpeptide mixture was added; the tubes were incubated for 5 min at 35° C., and then read for total intensity and polarization.

[3] = Isoelectric point of Bcl-2 / Bcl-xL proteins; type: physicochemical, human; conditions: pH at which the protein carries no net charge
Description: As used herein, the term “isoelectric point” (or pI) refers to the pH at which the protein carries no net charge. The isoelectric points of Bcl-2/iso1, Bcl-2/iso2, and Bcl-2/iso3 are about 7.0, 7.2 and 7.2, respectively. The mutant proteins of the present invention have an isoelectric point lower than that of wild-type Bcl-2 and preferably, in the range of 4.5 to about 6.0. More preferably, the isoelectric point of a mutant protein of the invention is from 4.5 to about 5.5. A more preferred isoelectric point is from about 5.0 to about 5.5. A most preferred isoelectric point is 5.0. Means for determining the isoelectric point of a protein are well known to those of ordinary skill in the art.

[4] = target: mutant Bcl-2/iso1 protein (Bcl-2/iso1 residues 1-34, Bcl-xL loop residues 29-44, Bcl-2/iso1 residues 92-207; plasmid C) (human); test: fluorescence polarization, direct titration of the fluoresceinated peptide with Bcl-2
[5] = target: mutant Bcl-2/iso1 protein (Bcl-2/iso1 residues 1-34, Bcl-xL loop residues 29-44, Bcl-2/iso1 residues 92-207; plasmid C) (human); test: competitive fluorescence polarization, displacement of a fluorescein-labeled peptide probe from Bcl-2 (340 nM)
[6] = target: mutant Bcl-2/iso2 protein (plasmid C construct with Ala96 to Thr96 and Gly110 to Arg110; plasmid D) (human); test: as above

Row | Molecule | Kd [5] [nM] | Kd (Bcl-2/iso1 [2]) [nM] | also measured
1 | CSCC[C@H](NC(=O)[C@H](CCCNC(=N)N)NC(=O)[C@H](CCCNC(=N)N)NC(=O)[C@H](CC(C)C)NC(=O)[C@H](CCC(=O)O)NC(=O)[C@H](CCCNC(=N)N)NC(=O)CNC(=O)[C@H](Cc1ccc(O)cc1)NC(=O)[C@H](CCCNC(=N)N)NC(=O)[C@H](CCC(N)=O)NC(=O)[C@H](C)NC(=O)[C@H](C)NC(=O)[C@H](C)NC(=O)[C@H](C)NC(=O)[C@H](C)NC(=O)c1ccc2c(c1)C(=O)OC21c2ccc(O)cc2Oc2cc(O)ccc21)C(=O)N[C@@H](CO)C(=O)N[C@@H](CC(=O)O)C(=O)N[C@@H](CCC(=O)O)C(=O)N[C@@H](Cc1ccccc1)C(=O)N[C@H](C(=O)N[C@@H](CC(=O)O)C(=O)N[C@@H](CO)C(=O)N[C@@H](CCCCN)C(=O)N[C@@H](CCCCN)C(=O)O)C(C)C (5FAM-AAAAAQRYGRELRRMSDEFVDSKK-OH; C-terminus assumed) | – | – | Kd (Bcl-2/iso1 [1]): ~50 nM
2 | NAWAAQRYGRELRRMSDEFVDSFKK [SEQ ID NO:22] | – | 75 | –
3 | NLWAAQRYARELRRMSDEFVAAFKK [SEQ ID NO:32] | – | 186 | –
4 | GGGAAQRYGRELRRMSDEFVDSFKK [SEQ ID NO:30] | – | 63 | –
5 | CSCC[C@H](NC(=O)[C@H](CCCNC(=N)N)NC(=O)[C@H](CCCNC(=N)N)NC(=O)[C@H](CC(C)C)NC(=O)[C@H](CCC(=O)O)NC(=O)[C@H](CCCNC(=N)N)NC(=O)CNC(=O)[C@H](Cc1ccc(O)cc1)NC(=O)[C@H](CCCNC(=N)N)NC(=O)[C@H](CCC(N)=O)NC(=O)[C@H](C)NC(=O)[C@H](C)NC(=O)[C@H](C)NC(=O)[C@H](C)NC(=O)[C@H](C)NC(=O)c1ccc2c(c1)C(=O)OC21c2ccc(O)cc2Oc2cc(O)ccc21)C(=O)N[C@@H](CO)C(=O)N[C@@H](CC(=O)O)C(=O)N[C@@H](CCC(=O)O)C(=O)N[C@@H](Cc1ccccc1)C(=O)N[C@H](C(=O)N[C@@H](CC(=O)O)C(=O)N[C@@H](CO)C(=O)N[C@@H](Cc1ccccc1)C(=O)N[C@@H](CCCCN)C(=O)N[C@@H](CCCCN)C(=O)O)C(C)C (5FAM-AAAAAQRYGRELRRMSDEFVDSFKK-OH) | – | – | Kd (Bcl-2/iso1 [1]): ~20 nM
6 | NLWAAQRYGREARRMSDEFVDSFKK [SEQ ID NO:33] | – | 7480 | –
7 | NLWAAQRYGRELRRMSDEFVDSFKA [SEQ ID NO:29] | – | 22 | –
8 | NLWGAQRYGRELRRMSDEFVDSFKK [SEQ ID NO:24] | – | 159 | –
9 | NLWAAQRYGRELRRMSDEFVDSAKK [SEQ ID NO:27] | – | 397 | –
10 | NLWAAQRYGRELRRMSAEFVDSFKK [SEQ ID NO:34] | – | 762 | –
11 | NLWAAQRYGRELRRMSDEFVD [SEQ ID NO:36] | – | 2330 | –
12 | NLWAAQRYGRELRRMSDEFVDSFAK [SEQ ID NO:28] | – | 123 | –
13 | NLWAAQRYGRELRRMSDEFVDAFKK [SEQ ID NO:26] | – | 26 | –
14 | QRYGRELRRMSDEFVDSFKK [SEQ ID NO:35] | – | 711 | –
15 | Bcl-2/iso2: wild-type human Bcl-2 protein isoform 2 (SEQ ID NO:4) | – | – | isoelectric point [3]: ~7.2
16 | AAAAAQRYGRELRRMSDEFVDSFKK [SEQ ID NO:17] | – | 74 | –
17 | NLAAAQRYGRELRRMSDEFVDSFKK [SEQ ID NO:23] | – | 39 | –
18 | ALWAAQRYGRELRRMSDEFVDSFKK [SEQ ID NO:21] | – | 211 | –
19 | NLWAGQRYGRELRRMSDEFVDSFKK [SEQ ID NO:25] | – | 105 | –
20 | NLPAAQRYGRELRRMSDEFVDSFKK [SEQ ID NO:31] | – | 54 | –
21 | {FITC′}-AAQRYGRELRRMSDEFVR [(FITC)-… (SEQ ID NO:19), fluorescein-labeled peptide probe (3)] | – | – | Kd [4]: 100 nM
22 | 5FAM-AAAAAQRYGRELRRMSDEFVDSKK [(5-FAM)-… (SEQ ID NO:18), fluorescein-labeled peptide probe (2)] | – | – | Kd [4]: 50 nM
23 | 5FAM-AAAAAQRYGRELRRMSDEFVDSFKK [(5-FAM)-… (SEQ ID NO:17), fluorescein-labeled peptide probe (1)] | – | – | Kd [4]: 20 nM
24 | NAWAAQRYGRELRRMSDEFVDSFKK [peptide … (SEQ ID NO:22)] | 75 | – | –
25 | GQVGRQLAIIGDDINR [peptide … (SEQ ID NO:37)] | – | – | Kd [6]: 1600 nM
26 | NLWAAQRYGRELRRMSDEFVDAFKK [peptide … (SEQ ID NO:26)] | 26 | – | –
27 | NLWAAQRYGREARRMSDEFVDSFKK [peptide … (SEQ ID NO:33)] | 7480 | – | –
28 | NLWAAQRYGRELRRMSDEFVDSFKK [peptide … (SEQ ID NO:20)] | 14 | – | Kd [6]: 8 nM

More lines, main results first:

Row | Kd [5] [nM] | Molecule | Kd (Bcl-2/iso1 [2]) [nM] | also measured
29 | 22 | NLWAAQRYGRELRRMSDEFVDSFKA [peptide … (SEQ ID NO:29)] | – | –
30 | 159 | NLWGAQRYGRELRRMSDEFVDSFKK [peptide … (SEQ ID NO:24)] | – | –
31 | 105 | NLWAGQRYGRELRRMSDEFVDSFKK [peptide … (SEQ ID NO:25)] | – | –
32 | 123 | NLWAAQRYGRELRRMSDEFVDSFAK [peptide … (SEQ ID NO:28)] | – | –
33 | 39 | NLAAAQRYGRELRRMSDEFVDSFKK [peptide … (SEQ ID NO:23)] | – | –
34 | 397 | NLWAAQRYGRELRRMSDEFVDSAKK [peptide … (SEQ ID NO:27)] | – | –
35 | 54 | NLPAAQRYGRELRRMSDEFVDSFKK [peptide … (SEQ ID NO:31)] | – | –
36 | 711 | QRYGRELRRMSDEFVDSFKK [peptide … (SEQ ID NO:35)] | – | –
37 | 186 | NLWAAQRYARELRRMSDEFVAAFKK [peptide … (SEQ ID NO:32)] | – | –
38 | 2330 | NLWAAQRYGRELRRMSDEFVD [peptide … (SEQ ID NO:36)] | – | –
39 | 63 | GGGAAQRYGRELRRMSDEFVDSFKK [peptide … (SEQ ID NO:30)] | – | –
40 | 211 | ALWAAQRYGRELRRMSDEFVDSFKK [peptide … (SEQ ID NO:21)] | – | –
41 | 762 | NLWAAQRYGRELRRMSAEFVDSFKK [peptide … (SEQ ID NO:34)] | – | –
42 | 74 | AAAAAQRYGRELRRMSDEFVDSFKK [peptide … (SEQ ID NO:17), not labeled] | – | –
